Target: hemagglutinin (HA) of A/WSN/1933 (H1N1) (Influenza A virus A/WSN/1933 (H1N1), UniProt I4EPC4)
Test: virus aggregation by fluorescence microscopy

Chain of hemagglutinin (HA) of A/WSN/1933 (H1N1) (P03454 18-565): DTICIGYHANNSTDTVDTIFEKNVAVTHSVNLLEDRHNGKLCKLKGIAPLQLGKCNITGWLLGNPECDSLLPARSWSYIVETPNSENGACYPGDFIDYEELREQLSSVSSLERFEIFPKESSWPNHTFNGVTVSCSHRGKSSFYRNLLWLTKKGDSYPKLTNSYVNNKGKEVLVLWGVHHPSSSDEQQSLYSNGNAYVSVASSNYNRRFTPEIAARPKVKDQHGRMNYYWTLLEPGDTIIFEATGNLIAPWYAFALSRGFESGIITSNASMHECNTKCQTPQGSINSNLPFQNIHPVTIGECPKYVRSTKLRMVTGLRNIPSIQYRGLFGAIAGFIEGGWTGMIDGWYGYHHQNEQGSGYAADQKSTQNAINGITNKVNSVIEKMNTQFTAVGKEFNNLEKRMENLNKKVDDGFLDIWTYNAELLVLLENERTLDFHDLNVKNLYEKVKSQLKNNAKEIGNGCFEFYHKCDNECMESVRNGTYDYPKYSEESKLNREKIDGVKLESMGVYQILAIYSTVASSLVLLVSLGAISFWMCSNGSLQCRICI

B1: C05 IgG (antibody, V domains shown)
VH: QVQLQESGGGLVQPGESLRLSCVGSGSSFGESTLSYYAVSWVRQAPGKGLEWLSIINAGGGDIDYADSVEGRFTISRDNSKETLYLQMTNLRVEDTGVYYCAKHMSMQQVVSAGWERADLVGDAFDVWGQGTMVTVSS
VL: DIQLTQSPSSLSASVGDRVTLTCQASQDIRKFLNWYQQKPGKGPKLLIYDASNLQRGVPSRFSGGGSGTDFTLIISSLQPEDVGTYYCQQYDGLPFTFGGGTKVVIK
binding result: binds

B2: S139\1 IgG (antibody, V domains shown)
VH: QVQLQQSGTELKKPGASVKISCKATGYTFSSYWIEWIKQRPGHGLEWIGEILPEIGMTNYNENFKGKATFTANTSSNTVYMQLSSLTSEDSAVYYCARPYDYSWFAYWGQGTLVTVSA
VL: DIVMTQSQKFMSTSVGDRVSVTCKASQNVDTNVAWYQEKPGQSPKTLIYSASNRYSGVPDRFTGSASGTDFTLTITNVQSEDLAEYFCQQYNSYPYTFGGGTKLEIK
binding result: binds

Reference: PMC10441363 (bioRxiv, 2023)
